Experimental findings from patent US20250296971A1, “GASTRIC INHIBITORY PEPTIDE RECEPTOR LIGANDS” (priority 2021, published 2025) are described below.

*1 amine or outer side, *2 acyl side, *3 side chain or, on linkers, in order; H or OH if unused. Bridges are numbered along the chain shown (N, C = ends). Primed or numbered codes have the meaning given here. [ ]: non-standard residue; d: D form. The star is where a group is joined. Ttds = 1,13-diamino-4,7,10-trioxatridecan-succinamic acid, NCCCOCCOCCOCCCNC(=O)CCC(=O)*; APAc″ = 4-amino-1-carboxymethylpiperidine, NC1CCN(CC(=O)*)CC1; DOTA = O=C(O)CN1CCN(CC(=O)O)CCN(CC(=O)*)CCN(CC(=O)O)CC1; 2Lut = 2,6-lutidylidene bridge between two thiols; Trp(5-Cl) = N[C@@H](Cc1c[nH]c2ccc(Cl)cc12)C(=O)O; Phe(3,4-Cl2) = N[C@@H](Cc1ccc(Cl)c(Cl)c1)C(=O)O; Pyridine(2,6-diCH2) = c1cc(C[*:1])nc(C[*:2])c1; Trp(6-F) = N[C@@H](Cc1c[nH]c2cc(F)ccc12)C(=O)O; 2Lut″ = 2,6-lutidylidene linking two thiols; APAc = 4-amino-1-carboxymethylpiperidine; Phe(3-Cl) = N[C@@H](Cc1cccc(Cl)c1)C(=O)O; MeO10kDaPEGAc = polydisperse 10 kDa PEG; Pro(4S-NH2) = N[C@@H]1CN[C@H](C(=O)O)C1; mXylylene = c1cc(C[*:1])cc(C[*:2])c1; Cya = N[C@@H](CS(=O)(=O)O)C(=O)O; Hyp = O=C(O)[C@@H]1C[C@@H](O)CN1; hArg = N=C(N)NCCCC[C@H](N)C(=O)O; Cysteamide = C(CS[*:3])N[*:1]; Suc = O=C(CCC(=O)[*:2])[*:1]; Api = NC1(C(=O)O)CCNCC1; Thp = NC1(C(=O)O)CCOCC1; Dap = NC[C@H](N)C(=O)O; Aib = CC(C)(N)C(=O)O

First the molecules themselves.
B1: Ac-Asp-Eaa-Eaa-Hyp-Glu-leu-[Cys(2Lut)-Thp-Leu-Ile-Cys]-NH2 (peptide)
peptide: Ac-D[Phe(3,4-Cl2)][Phe(3,4-Cl2)][Hyp]E[dL]C[Thp]LIC-NH2
modifications: linker 7-11 via Pyridine(2,6-diCH2)
SMILES: CC[C@H](C)[C@@H]1NC(=O)[C@H](CC(C)C)NC(=O)C2(CCOCC2)NC(=O)[C@@H](NC(=O)[C@@H](CC(C)C)NC(=O)[C@H](CCC(=O)O)NC(=O)[C@@H]2C[C@@H](O)CN2C(=O)[C@H](Cc2ccc(Cl)c(Cl)c2)NC(=O)[C@H](Cc2ccc(Cl)c(Cl)c2)NC(=O)[C@H](CC(=O)O)NC(C)=O)CSCc2cccc(n2)CSC[C@@H](C(N)=O)NC1=O
B2: Ac-Asp-Trp-5Clw-Hyp-Glu-leu-[Cys(2Lut)-Thp-Leu-Ser-Cys]-NH2 (peptide)
peptide: Ac-DW[Trp(5-Cl)][Hyp]E[dL]C[Thp]LSC-NH2
modifications: linker 7-11 via Pyridine(2,6-diCH2)
SMILES: CC(=O)N[C@@H](CC(=O)O)C(=O)N[C@@H](Cc1c[nH]c2ccccc12)C(=O)N[C@@H](Cc1c[nH]c2ccc(Cl)cc12)C(=O)N1C[C@H](O)C[C@H]1C(=O)N[C@@H](CCC(=O)O)C(=O)N[C@H](CC(C)C)C(=O)N[C@H]1CSCc2cccc(n2)CSC[C@@H](C(N)=O)NC(=O)[C@H](CO)NC(=O)[C@H](CC(C)C)NC(=O)C2(CCOCC2)NC1=O
B3: DOTA-APAc-Asp-Gly-5Clw-Hyp-Glu-leu-[Cys(2Lut)-Thp-Leu-Ile-AET] (peptide)
peptide: {DOTA-APAc″}-DG[Trp(5-Cl)][Hyp]E[dL]C[Thp]LI[Cysteamide]
modifications: linker (positions not given here) via Pyridine(2,6-diCH2); not fully specified (bridges); printed as DOTA-APAc-Asp-Gly-5Clw-Hyp-Glu-leu-[Cys(2Lut)-Thp-Leu-Ile-AET]
B4: Ac-Asp-Trp-5Clw-Hyp-Har-leu-[Cys(2Lut)-Thp-Leu-Ile-Cys]-NH2 (peptide)
peptide: Ac-DW[Trp(5-Cl)][Hyp][hArg][dL]C[Thp]LIC-NH2
modifications: linker 7-11 via Pyridine(2,6-diCH2)
SMILES: CC[C@H](C)[C@@H]1NC(=O)[C@H](CC(C)C)NC(=O)C2(CCOCC2)NC(=O)[C@@H](NC(=O)[C@@H](CC(C)C)NC(=O)[C@H](CCCCNC(=N)N)NC(=O)[C@@H]2C[C@@H](O)CN2C(=O)[C@H](Cc2c[nH]c3ccc(Cl)cc23)NC(=O)[C@H](Cc2c[nH]c3ccccc23)NC(=O)[C@H](CC(=O)O)NC(C)=O)CSCc2cccc(n2)CSC[C@@H](C(N)=O)NC1=O
B5: DOTA-APAc-Asp-Trp-5Clw-Hyp-Glu-leu-[Dap(2Lut)-Thp-Leu-Ile-AET] (peptide)
peptide: {DOTA-APAc″}-DW[Trp(5-Cl)][Hyp]E[dL][Dap][Thp]LI[Cysteamide]
modifications: linker (positions not given here) via Pyridine(2,6-diCH2); not fully specified (bridges); printed as DOTA-APAc-Asp-Trp-5Clw-Hyp-Glu-leu-[Dap(2Lut)-Thp-Leu-Ile-AET]

Sequence of biotinylated extracellular domain of the human GIP receptor (bioGIPR) (human) (P48546 24-138 limits assumed): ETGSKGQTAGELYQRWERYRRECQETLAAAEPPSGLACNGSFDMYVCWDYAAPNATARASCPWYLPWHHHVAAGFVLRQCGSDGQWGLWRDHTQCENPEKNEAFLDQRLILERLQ

The target in the first test is human Gastric Inhibitory Peptide Receptor (GIPR) (human) (UniProt P48546). In words: FACS competition vs biotinylated GIP-057 on CHO-K1-hGIPR cells; category C: pIC50 6.1-7.0.
Sequence of human Gastric Inhibitory Peptide Receptor (GIPR) (human) (P48546 22-466 limits assumed): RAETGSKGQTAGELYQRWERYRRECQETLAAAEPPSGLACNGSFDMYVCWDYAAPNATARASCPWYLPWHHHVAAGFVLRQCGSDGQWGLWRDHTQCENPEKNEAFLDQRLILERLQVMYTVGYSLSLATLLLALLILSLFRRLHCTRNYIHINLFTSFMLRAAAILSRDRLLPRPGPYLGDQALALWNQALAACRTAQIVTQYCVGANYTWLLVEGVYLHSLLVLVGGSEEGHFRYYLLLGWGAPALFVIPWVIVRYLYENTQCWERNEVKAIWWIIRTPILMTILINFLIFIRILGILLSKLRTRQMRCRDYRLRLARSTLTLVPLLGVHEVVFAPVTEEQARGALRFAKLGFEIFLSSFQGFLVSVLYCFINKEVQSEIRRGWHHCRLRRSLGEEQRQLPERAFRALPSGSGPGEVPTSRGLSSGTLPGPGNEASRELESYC
The molecule B1 showed a pIC50 of 6.1 to 7 pic50.

Take Ac-[Cya]G[Trp(5-Cl)][Hyp]E[dL]C[Aib]LI[Cysteamide] (linker 7-11 via 2Lut″) [Ac-Cya-Gly-5Clw-Hyp-Glu-leu-[Cys(2Lut)-Aib-Leu-Ile-AET]]: the pIC50 was 6.1 to 7 pic50.

In turn, B2 had a pIC50 of 6.1 to 7 pic50.

Take B3: the pIC50 lay in the range of 6.1 to 7 pic50.

The molecule Ac-DW[Phe(3-Cl)][Hyp]E[dL]C[Thp]LIC-NH2 (linker 7-11 via 2Lut″) [Ac-Asp-Trp-Mcf-Hyp-Glu-leu-[Cys(2Lut)-Thp-Leu-Ile-Cys]-NH2] had a pIC50 of 6.1 to 7 pic50.

As for {DOTA-Ttds}-D[Trp(6-F)]WPE[dL]C[Aib]LI[Cysteamide] (linker 7-11 via mXylylene) [DOTA-Ttds-Asp-6Fw-Trp-Pro-Glu-leu-[Cys(3MeBn)-Aib-Leu-Ile-AET]], the pIC50 was in the range of 6.1 to 7 pic50.

Another test concerns the target biotinylated extracellular domain of the human GIP receptor (bioGIPR) (human) (UniProt P48546). In words: SPR single cycle kinetics, bioGIPR captured on chip; category B: pKD 8.1-9.0.
Suc-W[Trp(5-Cl)][Hyp]E[dL]C[Api](MeO10kDaPEGAc)LIC-{APAc-Lys(DOTA)-NH2} (linker 6-10 via 2Lut) [HO-Succinyl-Trp-5Clw-Hyp-Glu-leu-[Cys(2Lut)-Apc(MeO10kDaPEGAc)-Leu-Ile-Cys]-APAc-Lys(DOTA)-NH2] gave a pKD of 8.1 to 9 pkd.

B4 displayed a pKD of 8.1 to 9 pkd.

In turn, {DOTA-Ttds}-DW[Trp(5-Cl)][Pro(4S-NH2)](Ac)E[dL]C[Aib]LI[Cysteamide] (linker 7-11 via mXylylene) [DOTA-Ttds-Asp-Trp-5Clw-4Ap(Ac)-Glu-leu-[Cys(3MeBn)-Aib-Leu-Ile-AET]] registered a pKD of 8.1 to 9 pkd.

Consider B5, for which the pKD lay in the range of 8.1 to 9 pkd.

Another test shares this target. As to the kind of experiment: SPR single cycle kinetics, bioGIPR captured on chip; category A: t1/2 >15 min.
In turn, Suc-W[Trp(5-Cl)][Hyp]E[dL]C[Api](MeO10kDaPEGAc)LIC-{APAc-Lys(DOTA)-NH2} (linker 6-10 via 2Lut) [HO-Succinyl-Trp-5Clw-Hyp-Glu-leu-[Cys(2Lut)-Apc(MeO10kDaPEGAc)-Leu-Ile-Cys]-APAc-Lys(DOTA)-NH2] came in with a t1/2 of more than 15 min.

Regarding B4, the t1/2 is more than 15 min.

In turn, {DOTA-Ttds}-DW[Trp(5-Cl)][Pro(4S-NH2)](Ac)E[dL]C[Aib]LI[Cysteamide] (linker 7-11 via mXylylene) [DOTA-Ttds-Asp-Trp-5Clw-4Ap(Ac)-Glu-leu-[Cys(3MeBn)-Aib-Leu-Ile-AET]] had a t1/2 of more than 15 min.

B5 displayed a t1/2 of more than 15 min.

For the next test, the target named is human Gastric Inhibitory Peptide Receptor (human) (UniProt P48546). In words: FACS competition with GIP-057 on CHO-K1-hGIPR cells; pIC50 category A: >8.0.
Sequence of human Gastric Inhibitory Peptide Receptor (human) (P48546 22-466 limits assumed): as above
In turn, {DOTA-Ttds}-DW[Trp(5-Cl)][Pro(4S-NH2)](Ac)E[dL]C[Aib]LI[Cysteamide] (linker 7-11 via mXylylene) [DOTA-Ttds-Asp-Trp-5Clw-4Ap(Ac)-Glu-leu-[Cys(3MeBn)-Aib-Leu-Ile-AET]] came in with a pIC50 of more than 8 pic50.

Take B5: the pIC50 is more than 8 pic50.

In the next test the target is human Gastric Inhibitory Peptide Receptor (GIPR) (human) (UniProt P48546). In words: FACS competition vs biotinylated GIP-057 on CHO-K1-hGIPR cells; category B: pIC50 7.1-8.0.
Consider B4, for which the pIC50 lay within 7.1 to 8 pic50.

The target in the next test is human Gastric Inhibitory Peptide Receptor (human) (UniProt P48546). As to the kind of experiment: FACS competition with GIP-057 on CHO-K1-hGIPR cells; pIC50 category B: 7.1-8.0.
For Suc-W[Trp(5-Cl)][Hyp]E[dL]C[Api](MeO10kDaPEGAc)LIC-{APAc-Lys(DOTA)-NH2} (linker 6-10 via 2Lut) [HO-Succinyl-Trp-5Clw-Hyp-Glu-leu-[Cys(2Lut)-Apc(MeO10kDaPEGAc)-Leu-Ile-Cys]-APAc-Lys(DOTA)-NH2], the pIC50 lay within 7.1 to 8 pic50.
